This is an account of results in patent US20090298167A1 (Pfizer, published 2009).

Assay [1] has as its target T1, murine IL-21R expressed on cells (murine, UniProt Q9JHX3 20-529). As to the kind of experiment: cell-based or functional assay.
In a further assay the target is T2, human IL-13-His/FLAG (human, UniProt P35225 35-146, limits assumed).
T2 construct: Unrelated His/FLAG-tagged control; also called human IL-13-H/F
Nature of the assay: BIACORE: antibody captured on anti-human IgG, 50 nM analyte injected. How it is done: (§1) The specificity of binding of a subset of transiently expressed anti-IL-21R binding proteins (here antibodies) was tested on a BIACORE™ 2000 surface plasmon resonance instrument. Anti-human-IgG, anti-murine immunoglobulin antibodies, and murine IL-21R-H/F were immobilized onto a research-grade carboxymethyl-dextran chip (CM5) using standard amine coupling. The sensor chip surface was activated with EDC/NHS for 7 min at a flow rate of 20 μl/min. The first flow cell was used as reference surface to correct for bulk refractive index, matrix effects, and nonspecific binding. […] Remaining activated groups were blocked with 1.0 M ethanolamine (pH 8.0). The molecular weights of the anti-human IgG and the anti-murine IgG were both 150 kD, and the molecular weight of the IL-21R monomer was 27 kD.
(§2) Conditioned media containing anti-IL-21R antibodies and antibody controls (murine anti-human IL-2Rβ and murine anti-human IL-4R(R&D Systems, Minneapolis, Minn.); human anti-human IL-13 (Wyeth, Cambridge, Mass.)) were diluted in HBS/EP buffer supplemented with 0.2% bovine serum and injected onto all four flow cells of the BIACORE™ chip, capturing 500-700 (RU) of antibody on the species-appropriate capture antibody. Following a 5 sec washing period, 50 nM solutions of a positive control protein (murine IL-21R-H/F), two human proteins related to IL-21R (human IL-2Rβ and human sIL-4R(R&D Systems)), or an unrelated His/FLAG-tagged protein (human IL-13-H/F), were injected over the captured antibodies on the chip. The association and dissociation phases were monitored for 120 and 180 sec, respectively, followed by two 5 μl injections of glycine (pH 1.5) to regenerate a fully active capturing surface. All binding experiments were done at 25° C. in HBS/EP buffer. Blank and buffer effects were subtracted for each sensorgram using double referencing.

The target of a further assay is T3, human IL-2Rβ (human, UniProt P14784 27-239).
T3 construct: Bought
T3 sequence (looked up): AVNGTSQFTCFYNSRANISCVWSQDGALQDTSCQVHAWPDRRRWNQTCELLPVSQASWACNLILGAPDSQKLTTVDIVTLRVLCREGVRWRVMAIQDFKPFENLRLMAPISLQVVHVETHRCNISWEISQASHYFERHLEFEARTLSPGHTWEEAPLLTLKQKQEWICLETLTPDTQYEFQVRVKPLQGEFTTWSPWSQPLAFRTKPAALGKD
The description is as above. How it is done: as §1, §2

For a further assay, the target named is T4, human soluble IL-4R (human, UniProt P24394 26-231, limits assumed).
T4 construct: soluble; also called human sIL-4R
T4 sequence (P24394 26-231 limits assumed): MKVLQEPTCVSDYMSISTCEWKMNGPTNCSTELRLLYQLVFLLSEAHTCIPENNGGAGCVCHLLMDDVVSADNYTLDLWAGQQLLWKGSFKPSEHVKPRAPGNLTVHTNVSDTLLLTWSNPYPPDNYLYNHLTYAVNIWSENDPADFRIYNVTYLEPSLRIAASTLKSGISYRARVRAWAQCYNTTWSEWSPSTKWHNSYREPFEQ
Described as above. How it is done: as §1, §2

Assay [2] deals with T5, human IL-21R expressed on cells (human, UniProt Q9HBE5 20-538). As to the kind of experiment: cell-based or functional assay.
T5 sequence (Q9HBE5 20-538 limits assumed): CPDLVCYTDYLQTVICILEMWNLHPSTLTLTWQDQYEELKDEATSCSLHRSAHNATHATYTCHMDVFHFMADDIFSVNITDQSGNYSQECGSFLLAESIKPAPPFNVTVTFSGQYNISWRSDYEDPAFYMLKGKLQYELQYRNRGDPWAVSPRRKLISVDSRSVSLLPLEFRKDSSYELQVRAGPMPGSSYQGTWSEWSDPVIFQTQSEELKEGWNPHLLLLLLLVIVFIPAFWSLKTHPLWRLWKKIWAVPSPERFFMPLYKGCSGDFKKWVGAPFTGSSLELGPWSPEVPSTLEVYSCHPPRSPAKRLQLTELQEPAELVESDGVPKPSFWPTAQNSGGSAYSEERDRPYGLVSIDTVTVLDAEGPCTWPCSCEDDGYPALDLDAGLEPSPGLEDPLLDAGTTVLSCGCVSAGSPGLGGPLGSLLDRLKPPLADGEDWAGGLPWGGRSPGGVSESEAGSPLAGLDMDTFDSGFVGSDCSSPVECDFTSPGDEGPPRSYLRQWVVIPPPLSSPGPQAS
Assay [3] has as its target T5, human IL-21R expressed on cells. Nature of the assay: cell-based or functional assay. This is another data set of the same source.
Assay [4] deals with T6, human gamma common chain expressed on CHO cells (human, UniProt P31785 23-369).
T6 construct: whole, on cells; Control protein; also called human IL-2R-γ common subunit; human gamma (γ) common chain
T6 sequence (looked up): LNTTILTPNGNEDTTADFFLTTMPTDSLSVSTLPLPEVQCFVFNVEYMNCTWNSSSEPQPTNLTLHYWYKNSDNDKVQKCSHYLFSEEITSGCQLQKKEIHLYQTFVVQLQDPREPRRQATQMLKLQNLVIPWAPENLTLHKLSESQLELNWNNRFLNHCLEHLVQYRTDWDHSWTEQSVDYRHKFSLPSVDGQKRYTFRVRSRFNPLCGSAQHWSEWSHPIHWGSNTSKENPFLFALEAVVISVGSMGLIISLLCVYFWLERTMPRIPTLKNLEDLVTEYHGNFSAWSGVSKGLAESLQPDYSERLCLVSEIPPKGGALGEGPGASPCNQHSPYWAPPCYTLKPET
Nature of the assay: cell ELISA on transfected CHO cells, 13 nM IgG. The procedure:
(§3) A subset of binding proteins was tested for binding to rat, cynomolgus monkey, human IL-21R, or human IL-2R-γ common subunit expressed transiently on the surfaces of CHO-PA-Dukx cells. Cells were transfected 48 hr prior to the assay. On the day of the assay, cells were washed gently 5× in PBS containing 0.9 mM CaCl₂ and 0.45 mM MgCl₂ (PBS/CaMg) on an automated plate washer (Titertek, Huntsville, Ala.), and blocked for 1 hr at RT in PBS/CaMg/5% nonfat dry milk. Conditioned media from transiently expressed anti-IL-21R IgGs were serially diluted in blocking buffer and added to the cells in the blocked plates for 1 hr at RT. Cells were washed 5× with PBS/CaMg and then incubated with horseradish peroxidase-conjugated anti-human IgG for 1 hr at RT. Cells were then washed 10× in PBS/CaMg and all of the wash buffer was removed. Cells were incubated with 100 μl TMB until the color reaction reached saturation, stopped with 100 μl of 0.18 M H₂SO₄, and read at A450 on a Perkin Elmer ENVISION™ plate reader.

The target in assay [5] is T7, rat IL-21R expressed on cells (rat).
T7 construct: whole, on cells; Transiently transfected CHO-PA-Dukx cells
Nature of the assay: cell ELISA on transfected CHO cells, 13 nM IgG. How it is done:
as §3

The target in assay [6] is T5, human IL-21R expressed on cells. As to the kind of experiment: cell ELISA on transfected CHO cells, 13 nM IgG. How it is done:
as §3
(An ELISA detects its analyte on a solid surface through an enzyme-linked reagent.)

The target in assay [7] is T8, cynomolgus monkey IL-21R expressed on CHO cells (cynomolgus monkey).
T8 construct: whole, on cells
Nature of the assay: cell ELISA on transfected CHO cells, 13 nM IgG. How it is done:
as §3

Assay [8] deals with T5, human IL-21R expressed on cells. As to the kind of experiment: cell-based or functional assay. This is another data set of the same source.
For assay [9], the target named is T1, murine IL-21R expressed on cells. Nature of the assay: cell-based or functional assay. The source holds these as a separate data set.
Assay [10] concerns the target T5, human IL-21R expressed on cells. Nature of the assay: cell-based or functional assay. The source holds these as a separate data set.
Assay [11] concerns the target T1, murine IL-21R expressed on cells. Nature of the assay: cell-based or functional assay. This is another data set of the same source.
Assay [12] addresses T7, rat IL-21R expressed on cells. Nature of the assay: cell-based or functional assay.

Positions count from the first letter of the chain named. In names and notes the source's numbering stands.

T2 sequence (P35225 35-146 limits assumed): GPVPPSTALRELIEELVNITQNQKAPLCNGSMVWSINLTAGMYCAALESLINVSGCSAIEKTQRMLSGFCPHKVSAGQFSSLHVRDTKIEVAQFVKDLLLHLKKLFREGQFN
T1 sequence (Q9JHX3 20-529 limits assumed): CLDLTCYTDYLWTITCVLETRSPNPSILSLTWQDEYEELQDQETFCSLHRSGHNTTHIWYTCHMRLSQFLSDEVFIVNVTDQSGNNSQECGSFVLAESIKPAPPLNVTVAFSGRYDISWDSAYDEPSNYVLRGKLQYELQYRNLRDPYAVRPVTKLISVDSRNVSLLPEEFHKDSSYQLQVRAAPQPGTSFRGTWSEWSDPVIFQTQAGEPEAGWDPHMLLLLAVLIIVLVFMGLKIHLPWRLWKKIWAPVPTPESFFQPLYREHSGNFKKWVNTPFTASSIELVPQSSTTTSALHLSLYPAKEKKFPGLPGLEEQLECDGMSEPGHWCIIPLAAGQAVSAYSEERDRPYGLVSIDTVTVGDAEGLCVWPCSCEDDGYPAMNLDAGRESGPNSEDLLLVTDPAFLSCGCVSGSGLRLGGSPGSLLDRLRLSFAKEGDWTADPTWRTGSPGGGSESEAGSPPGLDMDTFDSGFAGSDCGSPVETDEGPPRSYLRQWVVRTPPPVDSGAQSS

B1: AbR (antibody, human IgG1, V domains shown)
VH: QVQLQESGPGLVKPSETLSLTCAVSGYSISSGYYWGWIRQPPGKGLEWIGSISHTGNTYYNPPLKSRVTISVDTSKNQFSLKLSSVTAADTAVYYCARFMGFGRPEYWGQGTLVTVSS
VL: SSELTQDPAVSVALGQTVRITCQGDSLRTYYASWYQQKPGQAPVLVIYGKHKRPSGIPDRFSGSSSGNTASLTITGAQAEDEADYYCVTRSVKGNPHVLFGGGTQLTVL
notes: Purified form: human IgG1 double-mutant (L234A, G237A); Framework limits derived; also called VH3/VL18; VH3DM/VL18
As to B1, the “Neutralization of T cell Proliferation IC50 (nM), murine primary CD8+ T cells” value (“Neutralization … murine primary CD8+ T cells” for short) in assay [1] was 0.13 nM. Moreover, the binding result with human IL-13-His/FLAG, with human IL-2Rβ and in the assay with human soluble IL-4R was “no binding (tested: 50 nM)” throughout. In addition, the “Neutralization of T cell Proliferation IC50 (nM), human primary CD4+ T cells” value (shortened to “Neutralization … human primary CD4+ T cells”) in assay [2] was determined as 0.04 nM. Also, the “Neutralization of B cell proliferation IC50” value in [3] was determined as 220 pM. The “A450 at 13 nM Ab in cell ELISA” value in assay [4] was 0.109 A450; in assay [5], 1.11 A450; in assay [6], 1.33 A450; in assay [7], 1.35 A450. The “Human IL-21R-BaF3 Proliferation IC50” value in [8] amounted to 870 pM. In addition, in [8], the “Human IL-21R-TF1 Proliferation IC50” value amounted to 3940 pM. Also, the “Murine IL-21R-BaF3 Proliferation IC50” value in [9] came to 302 pM. For the same molecule, in assay [10], the “Human IL-21R-BaF3 Neutralization IC50” value turned out to be 560 pM. The “Human IL-21R-TF1 Neutralization IC50” value in assay [10] was found to be 1630 pM. Also, in assay [11], the “Murine IL-21R-BaF3 Neutralization IC50” value was determined as 340 pM.

B2: AbS (antibody, human IgG1, V domains shown)
VH: B1 VH with F99G, M100G, F102I, G103S
VL: B1 VL with V88M, T89S, V92I, K93W
notes: Human IgG1 triple-mutant (L234A, L235A, G237A); Framework limits derived; also called VHP/VL6; VHPTM/VL6
As to B2, the “Neutralization … murine primary CD8+ T cells” value in assay [1] came to 0.02 nM. The binding result with human IL-13-His/FLAG, with human IL-2Rβ and with human soluble IL-4R was “no binding (tested: 50 nM)” each time. Also, in assay [2], the “Neutralization … human primary CD4+ T cells” value is 0.06 nM. Further, the “Neutralization of B cell proliferation IC50” value in assay [3] came to 440 pM. Moreover, the “A450 at 13 nM Ab in cell ELISA” value in assay [4] stood at 0.118 A450; in assay [5], 1.17 A450; in assay [6] it was 1.02 A450; in assay [7] it was 1.22 A450. In addition, the “Human IL-21R-BaF3 Proliferation IC50” value in assay [8] stood at 1530 pM. Also, the “Human IL-21R-TF1 Proliferation IC50” value in [8] turned out to be 5000 pM. For the same molecule, in assay [9], the “Murine IL-21R-BaF3 Proliferation IC50” value turned out to be 40 pM. The “Human IL-21R-BaF3 Neutralization IC50” value in assay [10] came to 680 pM. Besides, the “Human IL-21R-TF1 Neutralization IC50” value in assay [10] came to 6670 pM. The “Murine IL-21R-BaF3 Neutralization IC50” value in [11] amounted to 40 pM. In assay [12], the “IC50 (nM) experiment 1, rat T cell proliferation” value turned out to be 36 nM. Also, the “IC50 (nM) experiment 2, rat T cell proliferation” value in assay [12] came out at 27.1 nM.

B3: AbT (antibody, human IgG1, V domains shown)
VH: B1 VH with F99G, M100G, F102I, G103S
VL: B1 VL with T89A, V92N
notes: Human IgG1 triple-mutant (L234A, L235A, G237A); Framework limits derived; also called VHP/VL9; VHPTM/VL9
Take B3: the “Neutralization … murine primary CD8+ T cells” value in assay [1] was 0.61 nM. The binding result in the assay with human IL-13-His/FLAG, in the assay with human IL-2Rβ and in the assay with human soluble IL-4R was “no binding (tested: 50 nM)” each time. For the same molecule, the “Neutralization … human primary CD4+ T cells” value in assay [2] came to 0.03 nM. Moreover, the “Neutralization of B cell proliferation IC50” value in assay [3] amounted to 140 pM. The “A450 at 13 nM Ab in cell ELISA” value in assay [4] was determined as 0.102 A450; in [5], 0.994 A450; in assay [6], 1.08 A450; in [7], 1.22 A450. For the same molecule, the “Human IL-21R-BaF3 Proliferation IC50” value in [8] turned out to be 670 pM. The “Human IL-21R-TF1 Proliferation IC50” value in assay [8] turned out to be 3260 pM. For the same molecule, the “Murine IL-21R-BaF3 Proliferation IC50” value in assay [9] was found to be 93 pM. In addition, the “Human IL-21R-BaF3 Neutralization IC50” value in assay [10] worked out at 300 pM. Further, the “Human IL-21R-TF1 Neutralization IC50” value in assay [10] was 2320 pM. In assay [11], the “Murine IL-21R-BaF3 Neutralization IC50” value is 50 pM.
